Laboratory results from patent US20170183710.

T1: Anaplastic Lymphoma kinase Artificial Substrate peptide-A (ALAStide-A)
T1 chain: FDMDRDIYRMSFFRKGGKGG

T2: Anaplastic Lymphoma kinase Artificial Substrate peptide-B (ALAStide-B)
T2 chain: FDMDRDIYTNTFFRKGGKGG

T3: YFF peptide
T3 chain: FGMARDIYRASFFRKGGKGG

B1: Lyn (protein)
chain: MGCIKSKGKDSLSDDGVDLKTQPVRNTERTIYVRDPTSNKQQRPVPESQLLPGQRFQTKDPEEQGDIVVALYPYDGIHPDDLSFKKGEKMKVLEEHGEWWKAKSLLTKKEGFIPSNYVAKLNTLETEEWFFKDITRKDAERQLLAPGNSAGAFLIRESETLKGSFSLSVRDFDPVHGDVIKHYKIRSLDNGGYYISPRITFPCISDMIKHYQKQADGLCRRLEKACISPKPQKPWDKDAWEIPRESIKLVKRLGAGQFGEVWMGYYNNSTKVAVKTLKPGTMSVQAFLEEANLMKTLQHDKLVRLYAVVTREEPIYIITEYMAKGSLLDFLKSDEGGKVLLPKLIDFSAQIAEGMAYIERKNYIHRDLRAANVLVSESLMCKIADFGLARVIEDNEYTAREGAKFPIKWTAPEAINFGCFTIKSDVWSFGILLYEIVTYGKIPYPGRTNADVMTALSQGYRMPRVENCPDELYDIMKMCWKEKAEERPTFDYLQSVLDDFYTATEGQYQQQP
B2: Csk (protein)
chain: MSAIQAAWPSGTECIAKYNFHGTAEQDLPFCKGDVLTIVAVTKDPNWYKAKNKVGREGIIPANYVQKREGVKAGTKLSLMPWFHGKITREQAERLLYPPETGLFLVRESTNYPGDYTLCVSCDGKVEHYRIMYHASKLSIDEEVYFENLMQLVEHYTSDADGLCTRLIKPKVMEGTVAAQDEFYRSGWALNMKELKLLQTIGKGEFGDVMLGDYRGNKVAVKCIKNDATAQAFLAEASVMTQLRHSNLVQLLGVIVEEKGGLYIVTEYMAKGSLVDYLRSRGRSVLGGDCLLKFSLDVCEAMEYLEGNNFVHRDLAARNVLVSEDNVAKVSDFGLTKEASSTQDTGKLPVKWTAPEALREKKFSTKSDVWSFGILLWEIYSFGRVPYPRIPLKDVVPRVEKGYKMDAPDGCPPAVYEVMKNCWHLDAAMRPSFLQLREQLEHIKTHELHL
B3: Anaplastic lymphoma kinase (ALK) (protein)
chain: VYRRKHQELQAMQMELQSPEYKLSKLRTSTIMTDYNPNYCFAGKTSSISDLKEVPRKNITLIRGLGHGAFGEVYEGQVSGMPNDPSPLQVAVKTLPEVCSEQDELDFLMEALIISKFNHQNIVRCIGVSLQSLPRFILLELMAGGDLKSFLRETRPRPSQPSSLAMLDLLHVARDIACGCQYLEENHFIHRDIAARNCLLTCPGPGRVAKIGDFGMARDIYRASYYRKGGCAMLPVKWMPPEAFMEGIFTSKTDTWSFGVLLWEIFSLGYMPYPSKSNQEVLEFVTSGGRMDPPKNCPGPVYRIMTQCWQHQPEDRPNFAIILERIEYCTQDPDVINTALPIEYGPLVEEEEKVPVRPKDPEGVPPLLVSQQAKREEERSPAAPPPLPTTSSGKAAKKPTAAEISVRVPRGPAVEGGHVNMAFSQSNPPSELHKVHGSRNKPTSLWNPTYGSWFTEKPTKKNNPIAKKEPHDRGNLGLEGSCTVPPNVATGRLPGASLLLEPSSLTANMKEVPLFRLRHFPCGNVNYGYQQQGLPLEAATAPGAGHYEDTILKSKNSMNQPGP

Key:
[1] = target: T1, Anaplastic Lymphoma kinase Artificial …
[2] = target: T2, Anaplastic Lymphoma kinase Artificial …
YFF peptide = target: T3, YFF peptide

Row | Protein | phosphorylation by kinase in vitro, ELISA [1] | phosphorylation by kinase in vitro, ELISA [2] | phosphorylation by kinase in vitro, ELISA (YFF peptide) | phosphorylation by ALK kinase in vitro, ELISA [1] | phosphorylation by ALK kinase in vitro, ELISA [2] | phosphorylation by ALK kinase in vitro, ELISA (YFF peptide)
1 | B1 | The ALK-specific biosensors are not phosphorylated by other representative cellular kinases | The ALK-specific biosensors are not phosphorylated by other representative cellular kinases | shows the lack of affinity of these the two ALK-specific biosensors and YFF peptide by Lyn, Abl, and Csk |  |  | 
2 | B2 | The ALK-specific biosensors are not phosphorylated by other representative cellular kinases | The ALK-specific biosensors are not phosphorylated by other representative cellular kinases | shows the lack of affinity of these the two ALK-specific biosensors and YFF peptide by Lyn, Abl, and Csk |  |  | 
3 | B3 |  |  |  | ALAStide-A has higher phosphorylation activity than YFF and ALAStide-B | ALAStide-B has comparable phosphorylation level with YFF peptide | YFF peptide is used as a reference to compare the phosphorylation activity of ALAStide-A and ALAStide-B
